{"source": "paper PMC11075064", "biological_target": "KCC2 (SLC12A5), neuron-specific K+/Cl- transporter (mouse (endogenous in brain)) (UniProt Q91V14)", "sequence (Q91V14 whole entry)": "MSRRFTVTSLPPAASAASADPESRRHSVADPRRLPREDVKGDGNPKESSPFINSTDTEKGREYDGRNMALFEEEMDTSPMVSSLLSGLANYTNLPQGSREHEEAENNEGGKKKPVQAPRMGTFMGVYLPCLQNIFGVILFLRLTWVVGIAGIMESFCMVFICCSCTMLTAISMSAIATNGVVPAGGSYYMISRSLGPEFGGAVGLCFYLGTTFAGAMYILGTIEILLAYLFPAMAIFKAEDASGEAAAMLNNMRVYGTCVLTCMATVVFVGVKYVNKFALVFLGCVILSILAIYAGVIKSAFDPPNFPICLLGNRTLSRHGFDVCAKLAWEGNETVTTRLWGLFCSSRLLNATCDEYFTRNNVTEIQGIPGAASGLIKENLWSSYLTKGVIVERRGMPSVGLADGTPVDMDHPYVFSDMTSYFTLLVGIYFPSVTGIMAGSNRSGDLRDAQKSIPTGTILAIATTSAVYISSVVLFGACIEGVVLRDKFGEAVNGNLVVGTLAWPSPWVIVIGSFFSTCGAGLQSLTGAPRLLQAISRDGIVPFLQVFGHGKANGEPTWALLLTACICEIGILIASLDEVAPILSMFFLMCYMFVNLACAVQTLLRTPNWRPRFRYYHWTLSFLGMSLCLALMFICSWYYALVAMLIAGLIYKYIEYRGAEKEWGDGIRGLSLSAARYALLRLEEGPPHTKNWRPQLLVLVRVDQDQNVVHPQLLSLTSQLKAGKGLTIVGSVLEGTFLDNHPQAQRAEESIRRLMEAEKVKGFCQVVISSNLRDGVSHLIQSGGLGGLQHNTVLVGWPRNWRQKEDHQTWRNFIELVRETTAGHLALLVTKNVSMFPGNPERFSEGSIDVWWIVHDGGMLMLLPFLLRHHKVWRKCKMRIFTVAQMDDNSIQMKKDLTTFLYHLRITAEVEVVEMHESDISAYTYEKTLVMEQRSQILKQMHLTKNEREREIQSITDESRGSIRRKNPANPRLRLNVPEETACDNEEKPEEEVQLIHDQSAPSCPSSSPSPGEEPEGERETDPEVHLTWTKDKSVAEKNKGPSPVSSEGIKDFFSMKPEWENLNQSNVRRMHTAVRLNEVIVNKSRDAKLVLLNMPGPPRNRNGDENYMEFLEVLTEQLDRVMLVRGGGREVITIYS", "test": "co-IP"}
{"substance": "catalytic subunit of protein phosphatase-1 (PP1) (from UniProt P62137 1-330) (enzyme)", "values": [{"measurement": "ratio of PP1/KCC2 immunoreactivity in LMTK3 KO mice, percent of WT", "value": "28.6 % of WT"}]}
